Assay results from paper doi:10.1101/251942.

Target: Brucella adipic acid activated regulator (BaaR), residues 21-284 (Brucella abortus)
Assay: crystal structure

## Brucella adipic acid activated regulator (BaaR), residues 21-284 (domain or fragment)
  stoichiometry N: 2
